For this test, the system named is complement. Nature of the test: G-CSF mobilization: complement activation in bone marrow. The test is classed as in vivo, mice.

These results are taken from patent US20070042930A1, “Effect of beta-glucan on stem cell recruitment and tissue repair” (priority 2002, published 2007).

B1: G-CSF: used for G-CSF-mediated stem cell mobilization (bone marrow transplantation) (protein, UniProt P09919 31-207, looked up)
Granulocyte …: TPLGPASSLPQSFLLKCLEQVRKIQGDGAALQEKLVSECATYKLCHPEELVLLGHSLGIPWAPLSSCPSQALQLAGCLSQLHSGLFLYQGLLQALEGISPELGPTLDTLQLDVADFATTIWQQMEELGMAPALQPTQGAMPAFASAFQRRAGGVLVASHLQSFLEVSYRVLRHLAQP
B1: the “complement activation in bone marrow” value was “stimulates complement activation in bone marrow with iC3b deposition on stromal cells” (G-CSF mobilization, FIG. 8A and 8B); “does not activate complement” (immunoglobulin-deficient SCID mice, FIG. 9A through 9F).
